Measured values reported in patent JP2001333780A (dated 2001).

B1: CaC 型 ヒト型一本鎖抗体 (scFv)
scFv: MGHHHHHHQVQLVQSGAEVKKPGASVKVSCKASGFNIKDTLMHWVRQAPGQGLEWMGWIDPEDGNTKYVRKFQGRVTMTRDTSTSTVYMELSSLRSEDTAVYYCARGGSYGNWAYWGQGTTVTVSSGGGGSGGGGSGGGGSDIQMTQSPSSLSASVGDRVTITCRTSENIYSYFAWYQQKSGKAPKLLIYNAKTLAEGVPSRFSGSGSGTEFTLTISSLQPEDFATYFCQHHYGSLHTFGGGTTVDIKHHHHHHGGGS
notes: Humanised scFv with VH of Ca type and VL of C type
B2: 一本鎖scBH抗体 (scFv)
chain: QVQLQQSGAELVRPGASVKLSCTASGFNIKDTLMHWVKQRPEQGLEWIGWIDPEDGNTKYVRKFQGKATITADTSSNTAYLQVSSLTSEDTAIYYCVRGGSYGNWAYWGQGTTVTVSSDIELTQSPASLSASVGETVTITCRTSENIYSYFAWYQQKQGKSPHLLVYNAKTLAEGVPSRFSGSGSGTQFSLKINSLQPEDFGIYFCQHHYGSLHTFGGGTKLEIK

Biological target: T1, 上皮細胞増殖因子レセプター(EGFR) (UniProt P00533 25-1210, limits assumed)
T1 construct: whole, on cells; The antigen is formalin-fixed A431 cells; also called EGF レセプター; EGFレセプター
Assay: competition ELISA with HRP-labelled B4G7 on formalin-fixed A431 cells

Row | Binder | binding result | 抗体一価あたりの結合力 (relative to B4G7抗体)
1 | B1 | binds | –
2 | B2 | – | ~0.33 fold of B4G7 antibody, per antibody valence
